Experimental data: patent US20060269538A1

What was measured:
[1] = target: variant D (trypsin mutant of SEQ ID NO:5) (human); experiment: cell-based or functional assay; conditions: scale: % of the serum concentration of anti-plasmin
[2] = target: variant E (trypsin mutant of SEQ ID NO:5) (human); experiment: cell-based or functional assay; conditions: scale: % of the serum concentration of anti-plasmin
variant E (trypsin mutant of SEQ ID NO:5) (human), sequence (chain, as listed by the source mutant): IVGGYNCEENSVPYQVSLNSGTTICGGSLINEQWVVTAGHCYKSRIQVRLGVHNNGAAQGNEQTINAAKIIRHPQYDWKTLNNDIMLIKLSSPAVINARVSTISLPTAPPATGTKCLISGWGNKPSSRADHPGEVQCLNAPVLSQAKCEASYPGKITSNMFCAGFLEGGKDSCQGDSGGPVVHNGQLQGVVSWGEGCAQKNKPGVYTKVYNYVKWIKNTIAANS

variant D (trypsin mutant of SEQ ID NO:5) (human), sequence (chain, as listed by the source mutant limits assumed): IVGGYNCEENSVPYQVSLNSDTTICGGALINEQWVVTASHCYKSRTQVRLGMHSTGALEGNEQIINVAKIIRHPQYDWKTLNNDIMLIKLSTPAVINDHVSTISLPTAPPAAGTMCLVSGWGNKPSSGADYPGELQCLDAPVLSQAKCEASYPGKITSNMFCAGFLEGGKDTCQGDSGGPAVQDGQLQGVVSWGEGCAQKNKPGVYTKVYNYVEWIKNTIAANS

- IC50 (inhibitor concentration at 50% residual proteolytic activity; cleavage of fluorescently labelled TNF-alpha) [1]: 5
- IC50 (inhibitor concentration at 50% residual proteolytic activity; cleavage of fluorescently labelled TNF-alpha) [2]: 40
Substance: antiplasmin (from UniProt P08697 40-491)
